Measurements as given in article PMC7308368, “Structure of the polymerase ε holoenzyme and atomic model of the leading strand replisome” (Nature Communications, 2020).

B1: Dpb3 subunit of S. cerevisiae DNA polymerase ε holoenzyme (natural protein)
chain: MSNLVKEKAPVFPISKVKKIAKCDPEYVITSNVAISATAFAAELFVQNLVEESLVLAQLNSKGKTSLRLSLNSIEECVEKRDNFRFLEDAIKQLKKNSALDKKRELNMQPGRSDQEVVIEEPELHEDDGVEEEEEEDEVSEEEEPVHNEELLDDSKDQQNDKSTRSVASLLSRFQYKSALDVGEHSDSSDIEVDHTKSTDP
notes: DNA polymerase epsilon subunit C Dpb3, S. cerevisiae; histone fold domain and C-terminal region; The holoenzyme was purified on anti-Flag resin; source: yeast, subunit genes integrated under the Gal1/10 promotor, galactose-induced; purified as holoenzyme (anti-Flag resin, MonoS)

How the values were obtained:
[1] = biological target: B1; test: cryo-EM structure; recombinant Pol ε holoenzyme at ~1.6 mg/ml on C-flat holey carbon grids; rigid-state particles selected; 3.5 Å map; sample buffer 50 mM Hepes pH 7.5, 50 mM KGlu, 200 mM KAcetate, 1 mM DTT, 4 mM MgCl2; conditions: both partners purified
[2] = biological target: T1, Pol2 subunit of S. cerevisiae DNA polymerase ε holoenzyme (S. cerevisiae, UniProt P21951 1-2222); test: as above; conditions: both partners purified
T1 construct: DNA polymerase epsilon catalytic subunit Pol2, S. cerevisiae; 2222-residue polypeptide with catalytic NTD, NTD-CTD linker (Thr-1186 to Ser-1308) and non-catalytic CTD; The holoenzyme was purified on anti-Flag resin; source: yeast, subunit genes integrated under the Gal1/10 promotor, galactose-induced; purified as holoenzyme (anti-Flag resin, MonoS)
T1 sequence (P21951 whole entry): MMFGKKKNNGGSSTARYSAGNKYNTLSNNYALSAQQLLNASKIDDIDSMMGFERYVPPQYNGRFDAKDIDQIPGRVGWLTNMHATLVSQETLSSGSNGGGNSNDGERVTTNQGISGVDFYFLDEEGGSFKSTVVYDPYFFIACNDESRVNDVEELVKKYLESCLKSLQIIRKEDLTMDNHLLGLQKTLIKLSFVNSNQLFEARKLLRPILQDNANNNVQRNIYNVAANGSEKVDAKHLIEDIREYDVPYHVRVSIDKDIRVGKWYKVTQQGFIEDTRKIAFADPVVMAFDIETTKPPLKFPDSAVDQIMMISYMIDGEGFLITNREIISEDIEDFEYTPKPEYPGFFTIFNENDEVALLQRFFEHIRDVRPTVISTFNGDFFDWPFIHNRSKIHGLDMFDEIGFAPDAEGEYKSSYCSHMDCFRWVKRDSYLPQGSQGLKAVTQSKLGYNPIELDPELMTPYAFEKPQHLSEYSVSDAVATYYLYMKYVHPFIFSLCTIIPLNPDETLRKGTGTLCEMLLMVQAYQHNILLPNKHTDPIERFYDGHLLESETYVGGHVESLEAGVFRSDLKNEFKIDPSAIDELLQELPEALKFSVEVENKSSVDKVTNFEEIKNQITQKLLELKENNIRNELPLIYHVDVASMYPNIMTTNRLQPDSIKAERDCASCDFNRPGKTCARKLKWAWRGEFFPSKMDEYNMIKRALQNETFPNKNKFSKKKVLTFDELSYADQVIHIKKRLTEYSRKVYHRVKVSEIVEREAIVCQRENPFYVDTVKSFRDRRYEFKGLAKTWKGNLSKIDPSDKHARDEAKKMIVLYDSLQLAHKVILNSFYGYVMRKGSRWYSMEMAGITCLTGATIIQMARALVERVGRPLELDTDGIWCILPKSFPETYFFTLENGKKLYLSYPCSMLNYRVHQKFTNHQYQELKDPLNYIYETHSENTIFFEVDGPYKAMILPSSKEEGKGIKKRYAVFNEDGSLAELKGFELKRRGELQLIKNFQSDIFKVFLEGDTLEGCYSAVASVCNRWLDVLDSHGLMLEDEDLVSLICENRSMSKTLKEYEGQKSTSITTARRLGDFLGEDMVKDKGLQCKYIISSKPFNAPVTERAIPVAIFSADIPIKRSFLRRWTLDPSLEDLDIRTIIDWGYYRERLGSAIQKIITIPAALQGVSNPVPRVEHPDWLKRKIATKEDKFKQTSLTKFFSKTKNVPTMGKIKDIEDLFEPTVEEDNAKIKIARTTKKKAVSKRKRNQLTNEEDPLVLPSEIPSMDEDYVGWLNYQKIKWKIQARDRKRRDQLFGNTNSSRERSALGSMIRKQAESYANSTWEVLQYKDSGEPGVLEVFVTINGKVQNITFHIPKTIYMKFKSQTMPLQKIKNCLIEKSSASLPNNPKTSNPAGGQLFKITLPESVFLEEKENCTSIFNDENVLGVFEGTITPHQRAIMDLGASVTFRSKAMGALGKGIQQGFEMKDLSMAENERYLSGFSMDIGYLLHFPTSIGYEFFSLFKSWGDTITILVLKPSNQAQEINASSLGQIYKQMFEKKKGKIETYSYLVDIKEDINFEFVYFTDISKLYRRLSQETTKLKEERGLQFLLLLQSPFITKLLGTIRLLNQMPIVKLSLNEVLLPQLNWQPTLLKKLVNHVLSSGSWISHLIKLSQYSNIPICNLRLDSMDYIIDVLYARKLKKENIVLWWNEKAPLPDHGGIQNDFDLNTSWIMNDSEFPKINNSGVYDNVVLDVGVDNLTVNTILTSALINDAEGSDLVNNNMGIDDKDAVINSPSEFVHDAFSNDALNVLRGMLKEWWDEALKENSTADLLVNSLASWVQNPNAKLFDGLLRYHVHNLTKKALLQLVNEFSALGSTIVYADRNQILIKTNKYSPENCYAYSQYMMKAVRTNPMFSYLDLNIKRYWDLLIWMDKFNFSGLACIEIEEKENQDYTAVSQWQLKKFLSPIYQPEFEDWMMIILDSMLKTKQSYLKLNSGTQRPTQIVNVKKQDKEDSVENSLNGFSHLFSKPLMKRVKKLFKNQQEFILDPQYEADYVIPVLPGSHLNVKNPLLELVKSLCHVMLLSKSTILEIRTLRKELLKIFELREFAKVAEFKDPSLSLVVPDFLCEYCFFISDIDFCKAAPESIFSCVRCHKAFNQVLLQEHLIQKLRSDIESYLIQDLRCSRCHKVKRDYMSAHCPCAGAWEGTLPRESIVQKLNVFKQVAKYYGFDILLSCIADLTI

Row | binding result [1] | binding result [2] | Binder
1 | binds | binds | Dpb4 subunit of S. cerevisiae DNA polymerase ε holoenzyme (natural protein, DNA polymerase epsilon subunit D Dpb4, S. cerevisiae; histone fold domain and C-terminal region; The holoenzyme was purified on anti-Flag resin; also called Dbp4; source: yeast, subunit genes integrated under the Gal1/10 promotor, galactose-induced; purified as holoenzyme (anti-Flag resin, MonoS)) MPPKGWRKDAQGNYPTTSYIKEQENITIQDLLFPKSTIVNLAREVPQQSGKKLLINKDASLALQRGATVFVNHLLLFAREIAKSQDKKSCSVDDVLSALDHIGHSALKGPVRDKLDEYQAAVEQRKKEKLDSGEVDADGDIDMGEDKENVPVEKVKEHDEIEEQGDALQDVEESSEKKQKTESQDVETRVQNLEQT
2 | – | binds | B1
3 | – | binds | Dpb2 subunit of S. cerevisiae DNA polymerase ε holoenzyme (natural protein, DNA polymerase epsilon subunit B Dpb2, S. cerevisiae; N-terminal helical domain (8-94, disordered), PDE domain (168-209 and 349-689), OB domain (210-348); The holoenzyme was purified on anti-Flag resin; also called Dbp2; B subunit; source: yeast, subunit genes integrated under the Gal1/10 promotor, galactose-induced; purified as holoenzyme (anti-Flag resin, MonoS)) MFGSGNVLPVKIQPPLLRPLAYRVLSRKYGLSIKSDGLSALAEFVGTNIGANWRQGPATIKFLEQFAAVWKQQERGLFIDQSGVKEVIQEMKEREKVEWSHEHPIQHEENILGRTDDDENNSDDEMPIAADSSLQNVSLSSPMRQPTERDEYKQPFKPESSKALDWRDYFKVINASQQQRFSYNPHKMQFIFVPNKKQNGLGGIAGFLPDIEDKVQMFLTRYYLTNDRVMRNENFQNSDMFNPLSSMVSLQNELSNTNRQQQSSSMSITPIKNLLGRDAQNFLLLGLLNKNFKGNWSLEDPSGSVEIDISQTIPTQGHYYVPGCMVLVEGIYYSVGNKFHVTSMTLPPGERREITLETIGNLDLLGIHGISNNNFIARLDKDLKIRLHLLEKELTDHKFVILGANLFLDDLKIMTALSKILQKLNDDPPTLLIWQGSFTSVPVFASMSSRNISSSTQFKNNFDALATLLSRFDNLTENTTMIFIPGPNDLWGSMVSLGASGTLPQDPIPSAFTKKINKVCKNVVWSSNPTRIAYLSQEIVIFRDDLSGRFKRHRLEFPFNESEDVYTENDNMMSKDTDIVPIDELVKEPDQLPQKVQETRKLVKTILDQGHLSPFLDSLRPISWDLDHTLTLCPIPSTMVLCDTTSAQFDLTYNGCKVINPGSFIHNRRARYMEYVPSSKKTIQEEIYI
